One series addresses T1, SgrAI A57E (UniProt Q9F6L0 1-339, A57E).
T1 sequence: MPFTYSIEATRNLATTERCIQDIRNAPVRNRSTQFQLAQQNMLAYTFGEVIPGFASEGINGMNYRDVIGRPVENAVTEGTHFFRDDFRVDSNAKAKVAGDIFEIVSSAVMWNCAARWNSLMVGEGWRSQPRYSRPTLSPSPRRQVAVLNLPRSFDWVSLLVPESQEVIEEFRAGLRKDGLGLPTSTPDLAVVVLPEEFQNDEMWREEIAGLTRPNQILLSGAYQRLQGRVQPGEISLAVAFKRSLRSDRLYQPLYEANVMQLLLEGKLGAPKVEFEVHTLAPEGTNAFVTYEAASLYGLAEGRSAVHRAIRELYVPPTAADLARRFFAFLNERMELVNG
As to the kind of experiment: EMSA; 10 mM Ca2+; 20 mM Tris-HOAc pH 8.0 (RT), 50 mM KOAc, 10 mM Ca(OAc)2 (or Mg(OAc)2), 1 mM DTT, 4 C for anisotropy and gel run; 10% glycerol for EMSA and R131A/R134A, none for wild type with 40-mers. The note with it: protein: recombinant; chain copies: 2; label: 5' 32P (S56E, A57E) or 5' fluorescein on top strand (R131A, R134A).

Another series deals with T2, SgrAI S56E (UniProt Q9F6L0 1-339, S56E).
T2 sequence: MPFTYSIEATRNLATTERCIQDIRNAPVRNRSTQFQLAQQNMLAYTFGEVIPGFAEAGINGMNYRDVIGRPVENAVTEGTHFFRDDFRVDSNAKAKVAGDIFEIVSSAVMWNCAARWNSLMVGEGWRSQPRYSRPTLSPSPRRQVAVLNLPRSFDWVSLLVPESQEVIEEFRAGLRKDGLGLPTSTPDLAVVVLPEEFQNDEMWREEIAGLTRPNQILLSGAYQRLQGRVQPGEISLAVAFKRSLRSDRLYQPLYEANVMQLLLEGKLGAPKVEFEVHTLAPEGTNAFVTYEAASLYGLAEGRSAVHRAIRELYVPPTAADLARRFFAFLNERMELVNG
The series is described as above. Particulars: protein: recombinant; chain copies: 2; label: 5' 32P (S56E, A57E) or 5' fluorescein on top strand (R131A, R134A).

The next series has as its target T3, SgrAI R131A (UniProt Q9F6L0 1-339, R131A).
T3 sequence: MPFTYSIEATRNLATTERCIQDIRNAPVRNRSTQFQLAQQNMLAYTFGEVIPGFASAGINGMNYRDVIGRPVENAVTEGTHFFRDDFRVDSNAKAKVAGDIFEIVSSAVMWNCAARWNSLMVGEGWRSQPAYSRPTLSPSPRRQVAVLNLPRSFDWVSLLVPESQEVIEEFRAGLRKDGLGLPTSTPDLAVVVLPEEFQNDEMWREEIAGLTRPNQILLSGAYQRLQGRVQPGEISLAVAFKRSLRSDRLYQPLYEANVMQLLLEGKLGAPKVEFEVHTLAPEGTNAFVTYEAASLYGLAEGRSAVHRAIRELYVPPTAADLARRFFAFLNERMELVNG
As to the kind of experiment: fluorescence anisotropy; 10 mM Ca2+; 20 mM Tris-HOAc pH 8.0 (RT), 50 mM KOAc, 10 mM Ca(OAc)2 (or Mg(OAc)2), 1 mM DTT, 4 C for anisotropy and gel run; 10% glycerol for EMSA and R131A/R134A, none for wild type with 40-mers. The note with it: protein: recombinant; chain copies: 2; label: 5' 32P (S56E, A57E) or 5' fluorescein on top strand (R131A, R134A).

The target in another series is T4, SgrAI R134A (UniProt Q9F6L0 1-339, R134A).
T4 sequence: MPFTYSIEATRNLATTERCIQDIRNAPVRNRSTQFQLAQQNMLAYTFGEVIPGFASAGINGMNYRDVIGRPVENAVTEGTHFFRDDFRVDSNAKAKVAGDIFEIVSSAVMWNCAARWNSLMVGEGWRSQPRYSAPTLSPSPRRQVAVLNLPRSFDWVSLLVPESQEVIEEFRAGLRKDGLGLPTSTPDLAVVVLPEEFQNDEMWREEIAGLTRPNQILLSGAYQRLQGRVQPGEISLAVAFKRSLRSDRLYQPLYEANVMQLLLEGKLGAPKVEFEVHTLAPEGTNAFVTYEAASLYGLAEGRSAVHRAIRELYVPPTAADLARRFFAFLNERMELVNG
The description is as above. The note with it: protein: recombinant; chain copies: 2; label: 5' 32P (S56E, A57E) or 5' fluorescein on top strand (R131A, R134A).

Series [1] addresses T5, SgrAI wild type (UniProt Q9F6L0 1-339).
T5 sequence: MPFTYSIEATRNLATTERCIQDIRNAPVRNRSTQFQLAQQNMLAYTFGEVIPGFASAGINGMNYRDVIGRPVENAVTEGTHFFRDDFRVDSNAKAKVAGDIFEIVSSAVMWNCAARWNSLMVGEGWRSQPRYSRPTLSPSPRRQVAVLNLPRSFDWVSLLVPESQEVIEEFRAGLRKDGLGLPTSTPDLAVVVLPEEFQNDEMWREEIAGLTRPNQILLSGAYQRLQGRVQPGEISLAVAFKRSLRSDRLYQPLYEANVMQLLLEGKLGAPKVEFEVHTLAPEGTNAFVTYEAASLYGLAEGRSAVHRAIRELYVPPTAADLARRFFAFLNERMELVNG
The series is described as above. Particulars: protein: recombinant, tags: none (untagged wild type; a C-terminal 6xHis version was also made), chain copies: 2.

Series [2] concerns the target T5, SgrAI wild type. As to the kind of experiment: fluorescence anisotropy; 10 mM Mg2+; 20 mM Tris-HOAc pH 8.0 (RT), 50 mM KOAc, 10 mM Ca(OAc)2 (or Mg(OAc)2), 1 mM DTT, 4 C for anisotropy and gel run; 10% glycerol for EMSA and R131A/R134A, none for wild type with 40-mers. Particulars: protein: recombinant; tags: none (untagged wild type; a C-terminal 6xHis version was also made); chain copies: 2; label: 5' Hex (Methods).

The mark [3] stands for this setting: label: 5' fluorescein on top strand.

B1: PC DNA (dsDNA)
DNA 1: GATGCGTGGGTCTTCACA
DNA 2: CCGGTGTGAAGACCCACGCATC
B1: the Kd with SgrAI A57E amounted to 5 ± 2 nM; with SgrAI S56E, 0.26 ± 0.02 nM; with SgrAI R131A, 60 ± 20 nM; in the series with SgrAI R134A, 13 ± 6 nM.

B2: 40-2A (dsDNA)
DNA 1: GATGCGTGGGTCTTCACACCGGGGGTCTGCTCAAAATGAG
DNA 2: CTCATTTTGAGCAGACCCCCGGTGTGAAGACCCACGCATC
For the molecule B2, the Kd with SgrAI wild type [1] (setting [3]) worked out at 27 ± 2 nM.

B3: 40-2B (dsDNA)
DNA 1: GATGCGTGGGTCTTCACACCGGTCGTCTGCTCAAAATGAG
DNA 2: CTCATTTTGAGCAGACGACCGGTGTGAAGACCCACGCATC
In the case of B3, the Kd with SgrAI wild type [1] (setting [3]) worked out at 17 ± 3 nM.

B4: 40-NCTA (40-NC-TA) (dsDNA)
DNA 1: GATGCGTGGGTCTTCACTCCGGAGGTCTGCTCAAAATGAG
DNA 2: CTCATTTTGAGCAGACCTCCGGAGTGAAGACCCACGCATC
For the molecule B4, the Kd with SgrAI wild type [2] came to 2.8 ± 0.5 nM; with SgrAI wild type [1] (label: 5' Hex (Methods)), 0.5 ± 0.1 nM.

These data come from PMC4399878, “Probing the Run-On Oligomer of Activated SgrAI Bound to DNA”.
